{
  "source": "paper PMC4666614",
  "about": "“Identification of New Regions in HIV-1 gp120 Variable 2 and 3 Loops that Bind to α4β7 Integrin Receptor” (PLoS ONE, 2015)",
  "molecules": {"B1": {"name": "Ovalbumin: nonspecific protein control (protein)", "chain": "MGSIGAASMEFCFDVFKELKVHHANENIFYCPIAIMSALAMVYLGAKDSTRTQINKVVRFDKLPGFGDSIEAQCGTSVNVHSSLRDILNQITKPNDVYSFSLASRLYAEERYPILPEYLQCVKELYRGGLEPINFQTAADQARELINSWVESQTNGIIRNVLQPSSVDSQTAMVLVNAIVFKGLWEKAFKDEDTQAMPFRVTEQESKPVQMMYQIGLFRVASMASEKMKILELPFASGTMSMLVLLPDEVSGLEQLESIINFEKLTEWTSSNVMEERKIKVYLPRMKMEEKYNLTSVLMAMGITDVFSSSANLSGISSAESLKISQAVHAAHAEINEAGREVVGSAEAGVDAASVSEEFRADHPFLFCIKHIATNAVLFFGRCVSP"}},
  "test_system": "α4β7 integrin binding to MAdCAM-1",
  "assay": "Competitive inhibition of binding of α4β7 on RPMI8866 cells to MAdCAM-1 by peptides, viruses, IMCs and controls",
  "format": "cell-based, human",
  "settings": "for % Inhibition ± SD of α4β7 integrin binding to MAdCAM-1: average of 3–7 experiments in triplicate",
  "method": "96-well plates were coated with MAdCAM-1 as described above. RPMI8866 cells (2 X 10^6/ ml) were incubated with cyclic V2 or V3 MN, TH023, or acute subtype C (C-6980v0c22) peptides or with scrambled flanking region (SFL) or the mid region (SMR) TH023 V2 or with a completely scrambled (SCR) TH023 peptide (10 μg/ml) for 45 minutes at 37°C before being added in triplicate to the MAdCAM-1 coated plates for 1 hour at 37°C. In concurrent experiments, RMI8866 cells were incubated with purified primary HIV-1 (0.75 ng to 6 ng/well p24) subtype B (SF162, US-1, JRFL), subtype CRF01_AE viruses (92TH023), IMCs (0.75 ng to 1000 ng/well p24 in each case) containing acute or chronic envelopes (Acute CRF01_AE (703357) [GenBank:JN944658], C (C-6980v0c22) [GenBank:HM215344], A(851891); Chronic CRF01_AE (CM235.2) [AF259954.1], C (ET02220LucR) [U46016]) or with pSG3Δenv. pSG3Δenv contained a four-nucleotide insertion mutation (CTAG) in Env, leading to a translation stop codon after amino acid residue 142. The pSG3Δenv clone is routinely used for generating Env pseudotyped infectious virions.\nViruses were tested in triplicate in two independent experiments. In additional experiments, mannose, HIV-1 p24, and ovalbumin (0.2–10 μg/ml) were used in the competition assay as nonspecific protein controls (data in Table 2; 3–7 experiments performed in triplicate), whereas, an anti-RSV mAb, Synagis® was used as a nonspecific antibody control. Synagis® was incubated for 45 minutes with either MAdCAM-1 or with RPMI8866 cells and then placed in the assay system. The remainder of the assay was similar to that described above. Significance was determined by paired Student’s t test.",
  "data": [
    {"molecule": "B1", "values": [
      {"measurement": "% Inhibition ± SD of α4β7 integrin binding to MAdCAM-1", "setting": "0.2 μg/ml", "value": "7.2 ± 12.5", "unit": "%"},
      {"measurement": "% Inhibition ± SD of α4β7 integrin binding to MAdCAM-1", "setting": "1.0 μg/ml", "value": "2.0 ± 3.5", "unit": "%"},
      {"measurement": "% Inhibition ± SD of α4β7 integrin binding to MAdCAM-1", "setting": "5 μg/ml", "value": "13.6 ± 11.8", "unit": "%"},
      {"measurement": "% Inhibition of α4β7 integrin binding to MAdCAM-1", "setting": "10 μg/ml, average of triplicate determinations from a single experiment", "value": 18, "unit": "%"},
      {"measurement": "Inhibition of α4β7 integrin binding to MAdCAM-1 by nonspecific controls (in words)", "setting": "0.2–10 μg/ml", "value": "no significant inhibition"}
    ]}
  ]
}
